The text below walks through data of paper PMC12392098, “Predicting the DNA binding specificity of transcription factor mutants using family-level biophysically interpretable machine learning”.

This data set addresses ASCL2 DBD wild type (human, UniProt Q99929 50-102). In words: EMSA; preferred over CACGTG probe; 32P EMSA: ~50 nM probe, 0.5/1/2 uM protein, 30 min, reagents as in Feng et al., gel at 4 C; fluorescent EMSA: 5x buffer (50 mM Tris pH 7.5, 250 mM NaCl, 5 mM MgCl2, 20% glycerol, 2.5 mM DTT, 2.5 mM EDTA, 250 ug/ml poly(dI-dC), 1 mg/ml BSA) used at 1x plus half volume protein dialysis buffer (20 mM HEPES pH 7.9, 200 mM NaCl, 10% glycerol, 2 mM MgCl2), gel 0.5x TBE at 4 C. As to conditions: protein: recombinant; tags: N-terminal 6xHis; mScarlet fusion; chain copies: 2; label: 32P (SRI primer strand); blunt.

ASCL2 DBD wild type, sequence (Q99929 50-102): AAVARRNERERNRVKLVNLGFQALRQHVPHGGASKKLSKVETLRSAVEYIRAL

B1: CAGCTG probe (dsDNA)
DNA 1: TAGCCAATAACTTCGTCCCTCAGCTGCATATAAGGAAGATCTAACCACCAATTTGG
DNA 2: CCAAATTGGTGGTTAGATCTTCCTTATATGCAGCTGAGGGACGAAGTTATTGGCTA
On to B1, for which the binding result is “binds”.
